These results are taken from publication PMC6395645, “Anopheline antiplatelet protein from mosquito saliva regulates blood feeding behavior” (Scientific Reports, 2019).

In the test the target is T1, Anopheline antiplatelet protein (AAPP) (Anopheles stephensi (endogenous in …, UniProt Q7YT37)).
T1 construct: Anopheline antiplatelet protein (AAPP), predominant saliva protein of Anopheles stephensi; acidic secretory protein, Mr = 37 kDa on immunoblots; Same endogenous protein in saliva and in salivary gland lysates; in TG mosquitoes it is present together with mDsRed-8H7scFv; source: endogenous, Anopheles stephensi saliva and salivary gland lysates/homogenates (WT and TG mosquitoes)
T1 sequence (Q7YT37 20-269): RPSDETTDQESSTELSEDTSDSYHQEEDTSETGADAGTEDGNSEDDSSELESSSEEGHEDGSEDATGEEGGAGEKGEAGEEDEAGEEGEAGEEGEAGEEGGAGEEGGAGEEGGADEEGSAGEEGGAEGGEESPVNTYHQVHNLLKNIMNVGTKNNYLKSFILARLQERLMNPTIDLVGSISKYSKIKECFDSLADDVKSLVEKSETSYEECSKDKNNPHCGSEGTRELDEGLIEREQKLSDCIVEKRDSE
Put plainly: pull-down; Ni-NTA beads added to lysates (Cellytic M) of dissected salivary glands of TG and WT mosquitoes, 1 h on ice, washed with PBS; His-tagged mDsRed-8H7scFv held on the resin; eluate blotted with anti-AAPP mAb 28B8 and anti-mDsRed polyclonal Ab. To be noted: partners not purified.

B1: mDsRed-8H7scFv (scFv, V domains shown)
VH: QVQLQQPGAELVRPGASVKLSCKASGYTFTSYWMNWVKQRPGQGLEWIGLIDPSDSETHYNQMFKDKATLTVDKSSSTAYMQLSSLTSEDSAVYYCARGGTYWGQGTTLTVSS
VL: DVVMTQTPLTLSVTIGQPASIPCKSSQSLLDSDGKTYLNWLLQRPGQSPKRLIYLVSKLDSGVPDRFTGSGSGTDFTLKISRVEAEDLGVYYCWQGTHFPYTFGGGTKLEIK
notes: VH of the anti-AAPP mAb 8H7; hinge/linker, printed as (Gly4Ser)3; VL of the anti-AAPP mAb 8H7; 54.6 kDa on blots; 8H7scFv is fused to monomeric DsRed through Gly4Ser x 3 linkers; The secretion signal is not described; also called anti-AAPP scFv; anti-AAPP antibody single-chain fragment; source: transgenic Anopheles stephensi (TG-03, TG-30, TG-37), expressed in salivary glands under the aapp …
Turning to B1, the binding result is given as “binds”.
